The results in this text go back to article PMC6292502 (Nature structural & molecular biology, 2018).

In data set [1] the target is Cep3;Ctf13;Skp1;Ndc10 (Saccharomyces cerevisiae;Saccharomyces …, UniProt P40969;P35203;P52286;P32504 1-608;1-478;1-194;1-956, |||). As to the kind of experiment: cryo-EM.
Data set [2] concerns the molecule itself. In words: cryo-EM structure.

Sequence of Cep3;Ctf13;Skp1;Ndc10 (P40969 whole entry, chain 1 of 3): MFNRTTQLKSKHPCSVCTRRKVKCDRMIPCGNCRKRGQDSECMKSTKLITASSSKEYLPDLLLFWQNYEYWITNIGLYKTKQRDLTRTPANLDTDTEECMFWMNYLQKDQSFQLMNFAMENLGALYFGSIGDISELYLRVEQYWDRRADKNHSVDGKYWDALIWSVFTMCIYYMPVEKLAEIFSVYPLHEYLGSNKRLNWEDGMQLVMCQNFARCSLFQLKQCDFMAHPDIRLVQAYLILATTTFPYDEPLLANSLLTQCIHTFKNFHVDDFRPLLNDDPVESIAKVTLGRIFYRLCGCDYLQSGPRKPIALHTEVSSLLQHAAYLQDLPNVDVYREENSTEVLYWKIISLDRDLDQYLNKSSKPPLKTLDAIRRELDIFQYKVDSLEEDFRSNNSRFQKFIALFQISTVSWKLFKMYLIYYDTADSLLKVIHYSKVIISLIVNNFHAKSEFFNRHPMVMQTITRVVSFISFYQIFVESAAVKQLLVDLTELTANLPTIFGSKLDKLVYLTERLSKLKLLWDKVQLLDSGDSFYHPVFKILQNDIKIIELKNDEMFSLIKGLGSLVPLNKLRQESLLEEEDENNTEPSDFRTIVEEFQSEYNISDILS
Sequence of Cep3;Ctf13;Skp1;Ndc10 (P35203 whole entry, chain 2 of 3): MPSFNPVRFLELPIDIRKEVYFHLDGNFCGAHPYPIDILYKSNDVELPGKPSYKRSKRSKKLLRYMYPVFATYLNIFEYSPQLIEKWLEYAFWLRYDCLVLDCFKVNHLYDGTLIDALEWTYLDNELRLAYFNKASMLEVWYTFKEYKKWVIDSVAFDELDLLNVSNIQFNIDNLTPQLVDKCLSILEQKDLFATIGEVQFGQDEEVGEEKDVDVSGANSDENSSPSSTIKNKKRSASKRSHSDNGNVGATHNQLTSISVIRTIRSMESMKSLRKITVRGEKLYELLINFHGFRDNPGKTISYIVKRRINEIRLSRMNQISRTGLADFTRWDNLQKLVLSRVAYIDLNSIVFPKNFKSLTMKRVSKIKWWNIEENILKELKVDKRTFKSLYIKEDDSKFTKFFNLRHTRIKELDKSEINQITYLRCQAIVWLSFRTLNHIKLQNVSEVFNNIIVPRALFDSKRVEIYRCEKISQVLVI
Sequence of Cep3;Ctf13;Skp1;Ndc10 (P52286 whole entry, chain 3 of 3): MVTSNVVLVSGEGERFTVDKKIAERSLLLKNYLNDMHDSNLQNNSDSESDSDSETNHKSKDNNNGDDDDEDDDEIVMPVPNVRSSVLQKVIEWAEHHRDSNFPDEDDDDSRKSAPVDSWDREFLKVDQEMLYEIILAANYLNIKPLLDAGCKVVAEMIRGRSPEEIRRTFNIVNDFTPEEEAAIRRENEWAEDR

B1: CEN3 DNA (147 bp CEN3) (dsDNA)
DNA 1: ATCAAATAGTACAAATAAGTCACATGATGATATTTGATTTTATTATATTTTTAAAAAAAGTAAAAAATAAAAAGTAGTTTATTTTTAAAAAATAAAATTTAAAATATTAGTGTATTTGATTTCCGAAAGTTAAAAAAGAAATAGTAAGAAGAT
DNA 2: ATCTTCTTACTATTTCTTTTTTAACTTTCGGAAATCAAATACACTAATATTTTAAATTTTATTTTTTAAAAATAAACTACTTTTTATTTTTTACTTTTTTTAAAAATATAATAAAATCAAATATCATCATGTGACTTATTTGTACTATTTGAT
For B1, the binding result in data set [1] is “binds”.

B2: Ndc10 (natural protein)
chain: MRSSILFLLKLMKIMDVQQQQEAMSSEDRFQELVDSLKPRTAHQYKTYYTKYIQWCQLNQIIPTPEDNSVNSVPYKDLPISAELIHWFLLDTLITDDKPGEKREETEDLDEEEENSFKIATLKKIIGSLNFLSKLCKVHENPNANIDTKYLESVTKLHTHWIDSQKAITTNETNNTNTQVLCPPLLKVSLNLWNPETNHLSEKFFKTCSEKLRFLVDFQLRSYLNLSFEERSKIRFGSLKLGKRDRDAIIYHKVTHSAEKKDTPGHHQLLALLPQDCPFICPQTTLAAYLYLRFYGIPSVSKGDGFPNLNADENGSLLQDIPILRGKSLTTYPREETFSNYYTTVFRYCHLPYKRREYFNKCNLVYPTWDEDTFRTFFNEENHGNWLEQPEAFAFPDKIPFDFKKIMNFKSPYTSYSTNAKKDPFPPPKDLLVQIFPEIDEYKRHDYEGLSQNSRDFLDLMEVLRERFLSNLPWIYKFFPNHDIFQDPIFGNSDFQSYFNDKTIHSKGSPILSFDILPGFNKIYKNKTNFYSLLIERPSQLTFASSHNPDTHPTQKQESEGPLQMSQLDTTQLNELLKQQSFEYVQFQTLSNFQILLSVFNKIFEKLEMKKSSRGYILHQLNLFKITLDERIKKSKIDDADKFIRDNQPIKKEENIVNEDGPNTSRRTKRPKQIRLLSIADSSDESSTEDSNVFKKDGESIEDGAYGENEDENDSEMQEQLKSMINELINSKISTFLRDQMDQFELKINALLDKILEEKVTRIIEQKLGSHTGKFSTLKRPQLYMTEEHNVGFDMEVPKKLRTSGKYAETVKDNDDHQAMSTTASPSPEQDQEAKSYTDEQEFMLDKSIDSIEGIILEWFTPNAKYANQCVHSMNKSGNKSWRANCEALYKERKSIVEFYIYLVNHESLDRYKAVDICEKLRDQNEGSFSRLAKFLRKWRHDHQNSFDGLLVYLSN
On to B2, for which, in data set [2], the binding result was “binds”.
